The record followed here is paper PMC6748616 (mAbs, 2019).

Common to all, as to experiment: SPR
(In SPR one partner is held on a chip, and binding of the other changes the refractive index at the surface.)

The target of assay [1] is IgV domain of human SIRPα v1 (Homo sapiens (Human)., UniProt P78324-1).
The target in assay [2] is IgV domain of human SIRPα v2 (Homo sapiens, SIRPα allele v2 …, strain).
Assay [3] deals with T1, IgV domain of cynomolgus SIRPα (Macaca fascicularis, EHH65484.1 allele).
T1 chain: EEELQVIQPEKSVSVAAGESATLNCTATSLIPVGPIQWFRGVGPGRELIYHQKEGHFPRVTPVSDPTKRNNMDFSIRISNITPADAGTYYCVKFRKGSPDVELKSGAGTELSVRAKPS

Assay [4] concerns the target IgV domain of mouse C57BL/6 SIRPα (Mus musculus, strain C57BL/6, UniProt P97797, strain).
In assay [5] the target is IgV domain of human SIRPγ (Homo sapiens, SIRPγ NP_061026.2, UniProt Q9P1W8).
The target in assay [6] is IgV domain of human SIRPβ1 (Homo sapiens, SIRPβ1 NP_006056.2, UniProt O00241).
The target of assay [7] is T2, IgV domain of mouse NOD SIRPα (Mus musculus, strain NOD, strain).
T2 chain: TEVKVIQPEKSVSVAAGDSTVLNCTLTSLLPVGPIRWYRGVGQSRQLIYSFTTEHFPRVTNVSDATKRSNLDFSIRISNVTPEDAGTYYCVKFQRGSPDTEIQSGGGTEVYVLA

Assay [8] concerns the target T3, IgV domain of mouse BALB/c SIRPα (Mus musculus, strain BALB/c, strain).
T3 chain: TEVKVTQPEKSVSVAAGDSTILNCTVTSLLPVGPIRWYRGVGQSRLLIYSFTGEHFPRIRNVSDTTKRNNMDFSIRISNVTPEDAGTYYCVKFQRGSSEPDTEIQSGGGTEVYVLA

Chain of IgV domain of human SIRPα v1 (P78324 31-149): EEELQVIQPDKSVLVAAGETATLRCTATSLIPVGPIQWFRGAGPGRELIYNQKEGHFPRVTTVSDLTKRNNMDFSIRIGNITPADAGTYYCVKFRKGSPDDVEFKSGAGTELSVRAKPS

B1: anti-SIRPα clone 218, scFv-Fc (scFv, V domains shown)
VH: DVQLVESGGGVVRPGESLTLSCTASGFTFTSSTMNWVRQAPGEGLDWVSSISTSGVITYYADSVKGRATISRDNSKNTLYLRLFSLRADDTAIYYCATDTFDHWGPGTLVTVSS
VL: ALTQPASVSANPGETVKITCFGSSGNYGWFQQKSPGSAPVTVIHYNNKRPSDIPSRFSGSKSGSTGTLTITGVRAEDEAVYFCGAWETGSATFGAGTTLTVL
Broadly, the Kd is the equilibrium constant for the complex coming apart. A higher Kd goes with a looser complex. With B1, the dissociation constant Kd in assay [1] worked out at 0.123 nM; in assay [2], 0.276 nM; in assay [3] it was 0.0599 nM; in assay [5] it was 0.0636 nM. The binding result in assay [4] is reported as “no binding (tested: 100 nM)”; in assay [6], “binds”.

B2: anti-SIRPα antibody clone 119, full-length IgG1 (antibody, V domains shown)
VH: DVQLLESGGGVVQPGGSLRLSCAASGFSFSNFAMTWVRQAPGEGLEWVSTIGSGDTYYADSVKGRFTISRDNSKNTLYLQMNSLRAEDTAVYYCAKDSTVSWSGDFFDYWGQGTLVTVSS
VL: EIVLTQSPATLSVSPGERATFSCRASQNVKNDLAWYQQRPGQAPRLLIYAARIRETGIPERFSGSGSGTEFTLTITSLQSEDFAVYYCQQYYDWPPFTFGGGTKVEIK
Regarding B2, the Kd in assay [1] is 0.183 nM; in assay [2], 0.0682 nM; in assay [3] it was 0.112 nM; in assay [5], 0.267 nM; in assay [6], 0.342 nM. Also, the binding result in assay [4] is “no binding (tested: 100 nM)”.

B3: anti-SIRPα antibody clone 3, full-length IgG1 (antibody, V domains shown)
VH: AVTLDESGGGLQTPGGALSLVCKASGFIFSDYGMNWVRQAPGKGLEFVAQITSGSRTYYGAAVKGRATISRDNRQSTVKLQLNNLRAEDTGIYFCARDFGSGVGSIDAWGNGTEVIVSS
VL: ALTQPASVSANLGGTVKITCSGSRGRYGWYQQRSPGSAPVTVIYRDNQRPSNIPSRFSSSTSGSTSTLTITGVQADDESVYFCGSYDGSIDIFGAGTTLTVL
For the molecule B3, the dissociation constant (Kd) in assay [1] was determined as 0.162 nM; in assay [2] it was 0.0767 nM; in assay [3], 2.29 nM; in assay [7] it was 1.63 nM; in assay [4], 3.65 nM; in assay [8], 1.16 nM. Besides, the figures for the Kd in assay [5] and in assay [6] were 83.6 nM and 1.63 nM, respectively.

B4: anti-SIRPα antibody clone 115, full-length IgG1 (antibody, V domains shown)
VH: DVQLVESGGGVVRPGESLRLSCAASGFSFSSYAMNWVRQAPGEGLEWVSRINSGGGGTDYAESVKGRFTISRDNSENTLYLQMNSLRAEDTAVYYCAKQYDWNSFFDYWGLGALVTVSS
VL: ETVLTQSPATLSVSPGERATLSCRASQTVGSKLAWHQQKPGQAPRLLIYDATNRATGISDRFSGSGSGTDFTLTISSLQTEDSAVYYCQQYYYWPPYRFGGGTKVEIK
Turning to B4, the Kd in assay [1] amounted to 0.426 nM; in assay [2], 1.86 nM; in assay [3], 2.41 nM. In addition, the binding result in assay [4] is “no binding (tested: 100 nM)”; in assay [5] it was “binds”; in assay [6], “binds”.

B5: anti-SIRPα antibody clone 136, full-length IgG1 (antibody, V domains shown)
VH: not shown
VL: ETVLTQSPGTLTLSPGERATLTCRASQSVYTYLAWYQEKPGQAPRLLIYGASSRATGIPDRFSGSGSGTEFTLTISSLQSEDFAVYYCQQYYDRPPLTFGGGTKVEIK
With B5, the Kd turned out to be 0.458 nM in assay [1]; 1.63 nM in assay [2]; 2.15 nM in assay [3]; 0.554 nM in assay [7]; 12.7 nM in assay [4]; 0.35 nM in assay [8]. Also, the dissociation constant (Kd) in assay [5] turned out to be 23.9 nM; in assay [6], 4.35 nM.
